Laboratory results taken from PMC3444823.

Key:
[1] = biological target: truncated HIV-1 gp120MS (residues 83-492, intact variable loops) (HIV-1 (clade A isolate)); test: SEC
[2] = biological target: truncated HIV-1 gp120SC (residues 83-492, intact variable loops) (HIV-1 (clade B isolate)); test: SEC
[3] = biological target: single-chain fusion protein of CD4i antibody domain m36.4 with gp140SC (human | HIV-1 (clade B isolate)); test: SPR
[4] = biological target: single-chain fusion protein of CD4i scFv m9 with gp120SC (HIV-1 (clade B isolate)); test: SPR
[5] = biological target: truncated HIV-1 gp120SC (residues 83-492, intact variable loops) (HIV-1 (clade B isolate)); test: SPR
[6] = biological target: truncated HIV-1 gp120MS (residues 83-492, intact variable loops) (HIV-1 (clade A isolate)); test: SPR
[7] = biological target: single-chain fusion protein of CD4i antibody domain m36.4 with gp120SC (human | HIV-1 (clade B isolate)); test: SPR
[8] = biological target: stabilized gp120SC with T257S+S375W mutations (HIV-1 (clade B isolate)); test: SPR
[9] = biological target: single-chain fusion protein of CD4i antibody domain m36.4 with gp120MS (human | HIV-1 (clade A isolate)); test: SPR

Question: Which stoichiometry N [1] does the source give for “truncated HIV-1 gp120MS (residues 83-492, intact variable loops) (domain or fragment)” here?
Answer: 2

Question: For “truncated HIV-1 gp120SC (residues 83-492, intact variable loops) (domain or fragment)”, which stoichiometry N [2] is on record?
Answer: 2

Question: What does the source list for “two-domain human soluble CD4 (domain or fragment)”?
Answer: Kd [3]: 1.9 nM; Kd [4]: 1.8 nM; Kd [5]: 104 nM; Kd [6]: 0.21 nM; Kd [7]: 0.73 nM; Kd [8]: 59 nM; Kd [9]: 0.15 nM
